Data as given in publication PMC6628566.

Biological target: CX3CR1 (UniProt P49238)
UniProt P49238, sequence (P49238 whole entry): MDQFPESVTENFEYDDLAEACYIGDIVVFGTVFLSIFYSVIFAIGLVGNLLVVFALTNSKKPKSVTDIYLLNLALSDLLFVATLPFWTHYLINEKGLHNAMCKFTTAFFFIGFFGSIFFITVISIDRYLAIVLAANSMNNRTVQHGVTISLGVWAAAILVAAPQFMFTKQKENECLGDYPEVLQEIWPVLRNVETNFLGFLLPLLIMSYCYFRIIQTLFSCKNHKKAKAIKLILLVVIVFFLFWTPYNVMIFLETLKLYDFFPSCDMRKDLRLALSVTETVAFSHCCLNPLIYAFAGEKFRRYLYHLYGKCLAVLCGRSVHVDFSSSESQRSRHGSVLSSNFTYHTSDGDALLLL

fold decrease in receptor binding affinity against sFKN: 10 fold
Substance: chemokine domain-only peptide of fractalkine (ckFKN) (domain or fragment)
